Measurements reported in patent publication US20120208291A1.

Target: acceptor complex of syntaxin linked to SNAP-25 (UniProt O16000)
Assay: KISMI single-molecule imaging

Sequence of UniProt O16000 (O16000 1-265, one chain of several): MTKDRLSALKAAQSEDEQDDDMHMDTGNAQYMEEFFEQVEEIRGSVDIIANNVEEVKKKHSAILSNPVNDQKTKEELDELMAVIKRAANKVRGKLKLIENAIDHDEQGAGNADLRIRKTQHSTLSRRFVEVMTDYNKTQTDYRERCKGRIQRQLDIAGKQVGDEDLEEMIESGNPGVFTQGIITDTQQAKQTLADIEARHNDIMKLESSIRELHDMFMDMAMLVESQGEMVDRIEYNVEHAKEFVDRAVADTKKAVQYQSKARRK

Kd: 1.7 µM
Substance: synaptobrevin (from UniProt O02495 1-86)
